In publication PMC7994000 (Biochimica et biophysica acta. Proteins and proteomics, 2020):

T1: Full-length human IKK2 (human, UniProt O14920 1-756)
T1 sequence (looked up): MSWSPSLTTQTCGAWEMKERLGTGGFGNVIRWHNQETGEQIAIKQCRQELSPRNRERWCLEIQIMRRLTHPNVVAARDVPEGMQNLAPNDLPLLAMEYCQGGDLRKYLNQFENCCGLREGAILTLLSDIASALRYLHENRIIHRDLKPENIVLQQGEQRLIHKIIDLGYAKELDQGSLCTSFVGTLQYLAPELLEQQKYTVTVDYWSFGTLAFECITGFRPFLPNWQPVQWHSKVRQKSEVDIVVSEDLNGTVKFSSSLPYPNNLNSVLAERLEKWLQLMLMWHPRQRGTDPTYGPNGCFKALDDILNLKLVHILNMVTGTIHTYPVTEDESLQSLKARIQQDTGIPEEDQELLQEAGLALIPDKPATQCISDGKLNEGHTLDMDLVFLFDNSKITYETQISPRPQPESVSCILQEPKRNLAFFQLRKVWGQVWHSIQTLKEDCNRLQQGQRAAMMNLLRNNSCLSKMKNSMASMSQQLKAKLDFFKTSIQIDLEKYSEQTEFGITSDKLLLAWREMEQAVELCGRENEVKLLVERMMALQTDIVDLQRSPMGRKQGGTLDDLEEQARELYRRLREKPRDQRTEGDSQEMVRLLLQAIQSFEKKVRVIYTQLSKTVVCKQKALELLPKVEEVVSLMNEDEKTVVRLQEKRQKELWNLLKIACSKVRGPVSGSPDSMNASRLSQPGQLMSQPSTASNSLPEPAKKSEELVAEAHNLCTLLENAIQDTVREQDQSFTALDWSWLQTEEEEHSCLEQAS


Assays:
[1] = target: the molecule itself; assay: SEC-MALS
[2] = target: T1, Full-length human IKK2; assay: SEC-MALS

Binder	stoichiometry N [1]	binding result [2]	binding result [1]
NEMO^1–130 (domain or fragment, human, UniProt Q9Y6K9 1-130, looked up) MNRHLWKSQLCEMVQPSGGPAADQDVLGEESPLGKPAMLHLPSEQGAPETLQRCLEENQELRDAIRQSNQILRERCEELLHFQASQREEKEFLMCKFQEARKLVERLGLEKLDLKRQKEQALREVEHLKR	2	binds	–
NEMO^1–210 (domain or fragment, human, UniProt Q9Y6K9 1-210, looked up) MNRHLWKSQLCEMVQPSGGPAADQDVLGEESPLGKPAMLHLPSEQGAPETLQRCLEENQELRDAIRQSNQILRERCEELLHFQASQREEKEFLMCKFQEARKLVERLGLEKLDLKRQKEQALREVEHLKRCQQQMAEDKASVKAQVTSLLGELQESQSRLEAATKECQALEGRARAASEQARQLESEREALQQQHSVQVDQLRMQGQSVE	–	binds	binds
NEMO^1–280 (domain or fragment, human, UniProt Q9Y6K9 1-280, looked up) MNRHLWKSQLCEMVQPSGGPAADQDVLGEESPLGKPAMLHLPSEQGAPETLQRCLEENQELRDAIRQSNQILRERCEELLHFQASQREEKEFLMCKFQEARKLVERLGLEKLDLKRQKEQALREVEHLKRCQQQMAEDKASVKAQVTSLLGELQESQSRLEAATKECQALEGRARAASEQARQLESEREALQQQHSVQVDQLRMQGQSVEAALRMERQAASEEKRKLAQLQVAYHQLFQEYDNHIKSSVVGSERKRGMQLEDLKQQLQQAEEALVAKQEV	–	binds	binds
NEMO^1–250 (domain or fragment, human, UniProt Q9Y6K9 1-250, looked up) MNRHLWKSQLCEMVQPSGGPAADQDVLGEESPLGKPAMLHLPSEQGAPETLQRCLEENQELRDAIRQSNQILRERCEELLHFQASQREEKEFLMCKFQEARKLVERLGLEKLDLKRQKEQALREVEHLKRCQQQMAEDKASVKAQVTSLLGELQESQSRLEAATKECQALEGRARAASEQARQLESEREALQQQHSVQVDQLRMQGQSVEAALRMERQAASEEKRKLAQLQVAYHQLFQEYDNHIKSSVV	2	binds	–
NEMO^1–110 (domain or fragment, human, UniProt Q9Y6K9 1-110, looked up) MNRHLWKSQLCEMVQPSGGPAADQDVLGEESPLGKPAMLHLPSEQGAPETLQRCLEENQELRDAIRQSNQILRERCEELLHFQASQREEKEFLMCKFQEARKLVERLGLE	2	–	–
NEMO^250–365 (domain or fragment, human, UniProt Q9Y6K9 250-365, looked up) VGSERKRGMQLEDLKQQLQQAEEALVAKQEVIDKLKEEAEQHKIVMETVPVLKAQADIYKADFQAERQAREKLAEKKELLQEQLEQLQREYSKLKASCQESARIEDMRKRHVEVSQ	2	–	–
NEMO^111–250 (domain or fragment, human, UniProt Q9Y6K9 111-250, looked up) KLDLKRQKEQALREVEHLKRCQQQMAEDKASVKAQVTSLLGELQESQSRLEAATKECQALEGRARAASEQARQLESEREALQQQHSVQVDQLRMQGQSVEAALRMERQAASEEKRKLAQLQVAYHQLFQEYDNHIKSSVV	2	–	–
